# B1: FAM107A (parent)
# chain: LQRVLEHRRRNQLIKKKKEELEAK
# B2: ZER1 (parent)
# chain: KEMARKVIEHCSNFKEENMDTSR
# Variants of: B1
# Assay: protein stability index of a GFP-peptide fusion (GPS, HEK-293T) (PSI 1-6); higher = more stable
# Settings: c terminus: a fixed tail appended
# 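Note: lentivirally expressed fusions sorted by FACS into six bins by GFP to DsRed ratio, PSI derived from sequencing read proportions per bin multiplied by bin number.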
row,Variant,protein stability index
1,LQRLLEHRRRNQLIKKKKEELEAK,2.87
2,LQRSLEHRRRNQLIKKKKEELEAK,3.69
3,LQRQLEHRRRNQLIKKKKEELEAK,4.61
4,LQRALEHRRRNQLIKKKKEELEAK,4.09
5,LQRHLEHRRRNQLIKKKKEELEAK,3.68
6,LQRFLEHRRRNQLIKKKKEELEAK,2.05
7,LQRPLEHRRRNQLIKKKKEELEAK,4.66
8,LQRTLEHRRRNQLIKKKKEELEAK,3.92
9,LQRKLEHRRRNQLIKKKKEELEAK,4.39
10,LQRMLEHRRRNQLIKKKKEELEAK,3.1
11,LQRGLEHRRRNQLIKKKKEELEAK,3.52
12,LQRRLEHRRRNQLIKKKKEELEAK,4.14
13,LQRELEHRRRNQLIKKKKEELEAK,4.49
14,LQRWLEHRRRNQLIKKKKEELEAK,2.09
15,LQRNLEHRRRNQLIKKKKEELEAK,4.87
16,LQRVLEHRRTNQLIKKKKEELEAK,4.57
17,LQRVLEHRRHNQLIKKKKEELEAK,3.2
18,LQRVLEHRRENQLIKKKKEELEAK,3.75
19,LQRVLEHRRYNQLIKKKKEELEAK,4.04
20,LQRVLEHRRNNQLIKKKKEELEAK,3.55
21,LQRVLEHRRINQLIKKKKEELEAK,3.3
22,LQRVLEHRRPNQLIKKKKEELEAK,4.23
23,LQRVLEHRRDNQLIKKKKEELEAK,4.77
24,LQRVLEHRRANQLIKKKKEELEAK,4.01

row,Variant,protein stability index
1,LQRVLEHRRWNQLIKKKKEELEAK,3.94
2,LQRVLEHRRSNQLIKKKKEELEAK,3.95
3,LQRVLEHRRKNQLIKKKKEELEAK,3.29
4,LQRVLEHRRGNQLIKKKKEELEAK,4.15
5,LQRVLEHRRFNQLIKKKKEELEAK,3.21
6,LQRVLEHRRCNQLIKKKKEELEAK,3.14
7,LQRVLEHRRMNQLIKKKKEELEAK,2.85
8,LQRVLEHRRVNQLIKKKKEELEAK,3.95
9,LQRVLEHRRLNQLIKKKKEELEAK,3.66
10,LQRVLEIRRRNQLIKKKKEELEAK,3.06
11,LQRVLEQRRRNQLIKKKKEELEAK,3.75
12,LQRVLEGRRRNQLIKKKKEELEAK,4.29
13,LQRVLEFRRRNQLIKKKKEELEAK,3.1
14,LQRVLEKRRRNQLIKKKKEELEAK,1.82
15,LQRVLECRRRNQLIKKKKEELEAK,3.37
16,LQRVLEPRRRNQLIKKKKEELEAK,3.4
17,LQRVLEMRRRNQLIKKKKEELEAK,3.15
18,LQRVLEARRRNQLIKKKKEELEAK,3.67
19,LQRVLEERRRNQLIKKKKEELEAK,3.9
20,LQRVLELRRRNQLIKKKKEELEAK,3.34
21,LQRVLEDRRRNQLIKKKKEELEAK,4.04
22,LQRVLERRRRNQLIKKKKEELEAK,3.19
23,LQRVLEYRRRNQLIKKKKEELEAK,1.69
24,LQRVLENRRRNQLIKKKKEELEAK,3.67

row,Variant,protein stability index
1,LQRVLEHRRRAQLIKKKKEELEAK,2.24
2,LQRVLEHRRRCQLIKKKKEELEAK,2.83
3,LQRVLEHRRRDQLIKKKKEELEAK,3.56
4,LQRVLEHRRRHQLIKKKKEELEAK,3.23
5,LQRVLEHRRRFQLIKKKKEELEAK,2.72
6,LQRVLEHRRRGQLIKKKKEELEAK,3.57
7,LQRVLEHRRREQLIKKKKEELEAK,4.16
8,PQRVLEHRRRNQLIKKKKEELEAK,4.66
9,WQRVLEHRRRNQLIKKKKEELEAK,2.56
10,EQRVLEHRRRNQLIKKKKEELEAK,4.79
11,IQRVLEHRRRNQLIKKKKEELEAK,2.73
12,YQRVLEHRRRNQLIKKKKEELEAK,3.02
13,AQRVLEHRRRNQLIKKKKEELEAK,4.61
14,MQRVLEHRRRNQLIKKKKEELEAK,3.64
15,DQRVLEHRRRNQLIKKKKEELEAK,5.36
16,QQRVLEHRRRNQLIKKKKEELEAK,5.11
17,TQRVLEHRRRNQLIKKKKEELEAK,4.72
18,KQRVLEHRRRNQLIKKKKEELEAK,4.85
19,FQRVLEHRRRNQLIKKKKEELEAK,3.13
20,GQRVLEHRRRNQLIKKKKEELEAK,4.37
21,LQRVLGHRRRNQLIKKKKEELEAK,3.98
22,LQRVLFHRRRNQLIKKKKEELEAK,3.63
23,LQRVLMHRRRNQLIKKKKEELEAK,3.32
24,LQRVLYHRRRNQLIKKKKEELEAK,3

row,Variant,protein stability index
1,LQRVLVHRRRNQLIKKKKEELEAK,3.68
2,LQRVLTHRRRNQLIKKKKEELEAK,3.02
3,LQRVLSHRRRNQLIKKKKEELEAK,4.13
4,LQRVLCHRRRNQLIKKKKEELEAK,3.12
5,LQRVLIHRRRNQLIKKKKEELEAK,2.73
6,LQRVLPHRRRNQLIKKKKEELEAK,3.96
7,LQRVLWHRRRNQLIKKKKEELEAK,3.02
8,LQRVLKHRRRNQLIKKKKEELEAK,4.04
9,LQRVLHHRRRNQLIKKKKEELEAK,3.81
10,LQRVLRHRRRNQLIKKKKEELEAK,3.81
11,LQRVLAHRRRNQLIKKKKEELEAK,3.07
12,LQRVLDHRRRNQLIKKKKEELEAK,3.61
13,LQRVLLHRRRNQLIKKKKEELEAK,2.79
14,LPRVLEHRRRNQLIKKKKEELEAK,3.98
15,LARVLEHRRRNQLIKKKKEELEAK,2.93
16,LLRVLEHRRRNQLIKKKKEELEAK,1.81
17,LFRVLEHRRRNQLIKKKKEELEAK,2.16
18,LGRVLEHRRRNQLIKKKKEELEAK,4.38
19,LIRVLEHRRRNQLIKKKKEELEAK,1.8
20,LRRVLEHRRRNQLIKKKKEELEAK,3.67
21,LERVLEHRRRNQLIKKKKEELEAK,3.89
22,LCRVLEHRRRNQLIKKKKEELEAK,2.98
23,LNRVLEHRRRNQLIKKKKEELEAK,4.13
24,LMRVLEHRRRNQLIKKKKEELEAK,2.78

row,Variant,protein stability index
1,LVRVLEHRRRNQLIKKKKEELEAK,2.41
2,LWRVLEHRRRNQLIKKKKEELEAK,2.06
3,LKRVLEHRRRNQLIKKKKEELEAK,4.01
4,LTRVLEHRRRNQLIKKKKEELEAK,4.02
5,LDRVLEHRRRNQLIKKKKEELEAK,3.25
6,LYRVLEHRRRNQLIKKKKEELEAK,2.13
7,LQRVLEHMRRNQLIKKKKEELEAK,3.38
8,LQRVLEHKRRNQLIKKKKEELEAK,3.82
9,LQRVLEHFRRNQLIKKKKEELEAK,2.1
10,LQRVLEHVRRNQLIKKKKEELEAK,3.05
11,LQRVLEHERRNQLIKKKKEELEAK,4.32
12,LQRVLEHGRRNQLIKKKKEELEAK,3.39
13,LQRVLEHDRRNQLIKKKKEELEAK,4.61
14,LQRVLEHTRRNQLIKKKKEELEAK,3.87
15,LQRVLEHQRRNQLIKKKKEELEAK,3.38
16,LQRVLEHLRRNQLIKKKKEELEAK,2.15
17,LQRVLEHPRRNQLIKKKKEELEAK,3.45
18,LQRVLEHARRNQLIKKKKEELEAK,3.43
19,LQRVLEHHRRNQLIKKKKEELEAK,2.89
20,LQRVLEHIRRNQLIKKKKEELEAK,2.42
21,LQRVLEHNRRNQLIKKKKEELEAK,3.53
22,LQRVLEHWRRNQLIKKKKEELEAK,1.68
23,LQDVLEHRRRNQLIKKKKEELEAK,4.5
24,LQYVLEHRRRNQLIKKKKEELEAK,3.39

row,Variant,protein stability index
1,LQNVLEHRRRNQLIKKKKEELEAK,3.79
2,LQQVLEHRRRNQLIKKKKEELEAK,3.92
3,LQLVLEHRRRNQLIKKKKEELEAK,2.39
4,LQVVLEHRRRNQLIKKKKEELEAK,3.6
5,LQTVLEHRRRNQLIKKKKEELEAK,3.8
6,LQSVLEHRRRNQLIKKKKEELEAK,4.04
7,LQHVLEHRRRNQLIKKKKEELEAK,4.12
8,LQFVLEHRRRNQLIKKKKEELEAK,3.04
9,LQAVLEHRRRNQLIKKKKEELEAK,3.21
10,LQCVLEHRRRNQLIKKKKEELEAK,3.13
11,LQIVLEHRRRNQLIKKKKEELEAK,2.09
12,LQKVLEHRRRNQLIKKKKEELEAK,3.69
13,LQEVLEHRRRNQLIKKKKEELEAK,5.32
14,LQWVLEHRRRNQLIKKKKEELEAK,2.27
15,LQRVLEHRMRNQLIKKKKEELEAK,2.77
16,LQRVLEHRGRNQLIKKKKEELEAK,4.14
17,LQRVLEHRCRNQLIKKKKEELEAK,3.23
18,LQRVLEHRARNQLIKKKKEELEAK,4.4
19,LQRVLEHRKRNQLIKKKKEELEAK,3.76
20,LQRVLEHRTRNQLIKKKKEELEAK,4.07
21,LQRVLEHRDRNQLIKKKKEELEAK,3.96
22,LQRVLEHRFRNQLIKKKKEELEAK,2.49
23,LQRVLEHRERNQLIKKKKEELEAK,3.97
24,LQRVLEHRVRNQLIKKKKEELEAK,2.16

row,Variant,protein stability index
1,LQRVLEHRSRNQLIKKKKEELEAK,4.03
2,LQRVLEHRYRNQLIKKKKEELEAK,1.84
3,LQRVLEHRHRNQLIKKKKEELEAK,3.65
4,LQRVLEHRPRNQLIKKKKEELEAK,3.81
5,LQRVLEHRLRNQLIKKKKEELEAK,1.72
6,LQRVLEHRIRNQLIKKKKEELEAK,2.72
7,LQRVTEHRRRNQLIKKKKEELEAK,4.38
8,LQRVCEHRRRNQLIKKKKEELEAK,3.69
9,LQRVIEHRRRNQLIKKKKEELEAK,3.2
10,LQRVHEHRRRNQLIKKKKEELEAK,5.17
11,LQRVYEHRRRNQLIKKKKEELEAK,2.98
12,LQRVREHRRRNQLIKKKKEELEAK,4.04
13,LQRVGEHRRRNQLIKKKKEELEAK,4.73
14,LQRVSEHRRRNQLIKKKKEELEAK,4.46
15,LQRVQEHRRRNQLIKKKKEELEAK,3.94
16,LQRVMEHRRRNQLIKKKKEELEAK,4.19
17,LQRVWEHRRRNQLIKKKKEELEAK,3.71
18,LQRVPEHRRRNQLIKKKKEELEAK,4.69
19,LQRVAEHRRRNQLIKKKKEELEAK,4.08
20,LQRVNEHRRRNQLIKKKKEELEAK,4.27
21,LQRVEEHRRRNQLIKKKKEELEAK,4.38
22,LQRVFEHRRRNQLIKKKKEELEAK,3.77

# Variants of: B2
# Assay: as above
# Settings: c terminus: native
row,Variant,protein stability index
1,KEMARKVIEHCSNFKEENMDTTR,4.42
2,KEMARKVIEHCSNFKEENMDTYR,3.76
3,KEMARKVIEHCSNFKEENMDTWR,2.97
4,KEMARKVIEHCSNFKEENMDTVR,3.7
5,KEMARKVIEHCSNFKEENMDTSS,4.84
6,KEMARKVIEHCSNFKEENMDTSI,4.9
7,KEMARKVIEHCSNFKEENMDTSM,4.6
8,KEMARKVIEHCSNFKEENMDTSW,3.91
9,KEMARKVIEHCSNFKEENMDTSN,5.16
10,KEMARKVIEHCSNFKEENMDTSV,4.76
11,KEMARKVIEHCSNFKEENMDTSQ,5.31
12,KEMARKVIEHCSNFKEENMDTST,5.01
13,KEMARKVIEHCSNFKEENMDTSF,4.69
14,KEMARKVIEHCSNFKEENMDTSE,5.48
15,KEMARKVIEHCSNFKEENMDTSY,4.54
16,KEMARKVIEHCSNFKEENMDTSA,4.67
17,KEMARKVIEHCSNFKEENMDTSG,5.08
18,KEMARKVIEHCSNFKEENMDTSL,4.86
19,KEMARKVIEHCSNFKEENMDTSC,4.72
20,KEMARKVIEHCSNFKEENMDTSK,5.27
21,KEMARKVIEHCSNFKEENMDTSP,4.6
22,KEMARKVIEHCSNFKEENMDTSD,5.41
23,KEMARKVIEHCSNFKEENMDTSH,5.07
